According to patent US20050170442:

Target: T1, Biotin-labeled fluorescent peptide CPRPFSVPP(S*)PDK-(5-FAM) (not fully specified)
T1 chain: CPRPFSVPPSPDK

B1: GSK3α, rHuman (protein)
chain: MSGGGPSGGGPGGSGRARTSSFAEPGGGGGGGGGGPGGSASGPGGTGGGKASVGAMGGGVGASSSGGGPGGSGGGGSGGPGAGTSFPPPGVKLGRDSGKVTTVVATLGQGPERSQEVAYTDIKVIGNGSFGVVYQARLAETRELVAIKKVLQDKRFKNRELQIMRKLDHCNIVRLRYFFYSSGEKKDELYLNLVLEYVPETVYRVARHFTKAKLTIPILYVKVYMYQLFRSLAYIHSQGVCHRDIKPQNLLVDPDTAVLKLCDFGSAKQLVRGEPNVSYICSRYYRAPELIFGATDYTSSIDVWSAGCVLAELLLGQPIFPGDSGVDQLVEIIKVLGTPTREQIREMNPNYTEFKFPQIKAHPWTKVFKSRTPPEAIALCSSLLEYTPSSRLSPLEACAHSFFDELRCLGTQLPNNRPLPPLFNFSAGELSIQPSLNAILIPPHLRSPAGTTTLTPSSQALTETPTSSDWQSTDATPTLTNSS
For B1, the “TR-FRET ratio (Em520/Em495) after kinase reaction, chymotrypsin development and Tb-streptavidin detection” value was “with GSK3a, a higher TR-FRET ratio than without GSK3α is seen”, the “TR-FRET ratio (Em520/Em495) in the chymotrypsin titration” value was “with GSK3α a higher TR-FRET ratio than without GSK3α is seen” and the “amount of enzyme/well needed for roughly 50% maximal signal at 10 µM ATP/well (TR-FRET enzyme titration)” value was 0.05 µg/ml for GSK3α.
